± gives the uncertainty stated by the source.
B1: Ankyrin-1, residues 1405 to 1484; numbered along this chain, P16157 (parent)
chain: MKMAVISEHLGLSWAELARELQFSVEDINRIRVENPNSLLEQSVALLNLWVIREGQNANMENLYTALQSIDRGEIVNMLE

Variants of: B1
Experiment: abundance fitness (aPCA) (normalised: wild type 0, dead -1); higher = more abundant; growth selection in yeast, the domain comes from the species named
Settings: Homo sapiens

MKMAVISEHLGLSWAELARELQFSVEDINRIRVENPNSLLEQSVAMLNLWVIREGQNANMENLYTALQSIDRGEIVNMLE and MKMAVISEHLGLSWAELARELQFSVEDINRIRVENPNSLLEQSVATLNLWVIREGQNANMENLYTALQSIDRGEIVNMLE are within error of each other in abundance fitness: -0.201 ± 0.039 for the first, -0.143 ± 0.085 for the second.

MKMAVISEHLGLSWAELARELQFSVEDINRIRVENPNSLLEQSVAWLNLWVIREGQNANMENLYTALQSIDRGEIVNMLE and MKMAVISEHLGLSWAELARELQFSVEDINRIRVENPNSLLEQSVAPLNLWVIREGQNANMENLYTALQSIDRGEIVNMLE are within error of each other in abundance fitness: -0.638 ± 0.096 for the first, -0.891 ± 0.23 for the second.

First: MKMAVISEHLGLSWAELARELQFSVEDINRIRVENPNSLLEQSVAELNLWVIREGQNANMENLYTALQSIDRGEIVNMLE
Second: MKMAVISEHLGLSWAELARELQFSVEDINRIRVENPNSLLEQSVAFLNLWVIREGQNANMENLYTALQSIDRGEIVNMLE
The abundance fitness of the first is lower: -0.987 ± 0.49 for the first, -0.204 ± 0.14 for the second.

MKMAVISEHLGLSWAELARELQFSVEDINRIRVENPNSLLEQSVAILNLWVIREGQNANMENLYTALQSIDRGEIVNMLE and MKMAVISEHLGLSWAELARELQFSVEDINRIRVENPNSLLEQSVAKLNLWVIREGQNANMENLYTALQSIDRGEIVNMLE are within error of each other in abundance fitness: -0.446 ± 0.12 for the first, -0.741 ± 0.31 for the second.

MKMAVISEHLGLSWAELARELQFSVEDINRIRVENPNSLLEQSVAQLNLWVIREGQNANMENLYTALQSIDRGEIVNMLE and MKMAVISEHLGLSWAELARELQFSVEDINRIRVENPNSLLEQSVASLNLWVIREGQNANMENLYTALQSIDRGEIVNMLE are within error of each other in abundance fitness: -1.13 ± 0.41 for the first, -0.832 ± 0.14 for the second.

MKMAVISEHLGLSWAELARELQFSVEDINRIRVENPNSLLEQSVAGLNLWVIREGQNANMENLYTALQSIDRGEIVNMLE and MKMAVISEHLGLSWAELARELQFSVEDINRIRVENPNSLLEQSVAYLNLWVIREGQNANMENLYTALQSIDRGEIVNMLE are within error of each other in abundance fitness: -0.953 ± 0.13 for the first, -0.614 ± 0.39 for the second.

Going from MKMAVISEHLGLSWAELARELQFSVEDINRIRVENPNSLLEQSVALLFLWVIREGQNANMENLYTALQSIDRGEIVNMLE to MKMAVISEHLGLSWAELARELQFSVEDINRIRVENPNSLLEQSVALLQLWVIREGQNANMENLYTALQSIDRGEIVNMLE, the abundance fitness rises from -0.896 ± 0.24 to -0.205 ± 0.15.

Going from MKMAVISEHLGLSWAELARELQFSVEDINRIRVENPNSLLEQSVALLRLWVIREGQNANMENLYTALQSIDRGEIVNMLE to MKMAVISEHLGLSWAELARELQFSVEDINRIRVENPNSLLEQSVALLALWVIREGQNANMENLYTALQSIDRGEIVNMLE, the abundance fitness falls from -0.006 ± 0.052 to -0.415 ± 0.064.

First: MKMAVISEHLGLSWAELARELQFSVEDINRIRVENPNSLLEQSVALLCLWVIREGQNANMENLYTALQSIDRGEIVNMLE
Second: MKMAVISEHLGLSWAELARELQFSVEDINRIRVENPNSLLEQSVALLPLWVIREGQNANMENLYTALQSIDRGEIVNMLE
The abundance fitness of the first is higher: -0.495 ± 0.17 for the first, -1.07 ± 0.34 for the second.

MKMAVISEHLGLSWAELARELQFSVEDINRIRVENPNSLLEQSVALLILWVIREGQNANMENLYTALQSIDRGEIVNMLE and MKMAVISEHLGLSWAELARELQFSVEDINRIRVENPNSLLEQSVALLLLWVIREGQNANMENLYTALQSIDRGEIVNMLE are within error of each other in abundance fitness: -1.04 ± 0.24 for the first, -0.835 ± 0.091 for the second.

Going from MKMAVISEHLGLSWAELARELQFSVEDINRIRVENPNSLLEQSVALLGLWVIREGQNANMENLYTALQSIDRGEIVNMLE to MKMAVISEHLGLSWAELARELQFSVEDINRIRVENPNSLLEQSVALLHLWVIREGQNANMENLYTALQSIDRGEIVNMLE, the abundance fitness rises from -0.236 ± 0.055 to -0.042 ± 0.086.

MKMAVISEHLGLSWAELARELQFSVEDINRIRVENPNSLLEQSVALLVLWVIREGQNANMENLYTALQSIDRGEIVNMLE and MKMAVISEHLGLSWAELARELQFSVEDINRIRVENPNSLLEQSVALLTLWVIREGQNANMENLYTALQSIDRGEIVNMLE are within error of each other in abundance fitness: -0.474 ± 0.094 for the first, -0.544 ± 0.11 for the second.

First: MKMAVISEHLGLSWAELARELQFSVEDINRIRVENPNSLLEQSVALLELWVIREGQNANMENLYTALQSIDRGEIVNMLE
Second: MKMAVISEHLGLSWAELARELQFSVEDINRIRVENPNSLLEQSVALLSLWVIREGQNANMENLYTALQSIDRGEIVNMLE
The abundance fitness of the first is lower: -0.458 ± 0.11 for the first, -0.277 ± 0.07 for the second.

Going from MKMAVISEHLGLSWAELARELQFSVEDINRIRVENPNSLLEQSVALLMLWVIREGQNANMENLYTALQSIDRGEIVNMLE to MKMAVISEHLGLSWAELARELQFSVEDINRIRVENPNSLLEQSVALLDLWVIREGQNANMENLYTALQSIDRGEIVNMLE, the abundance fitness rises from -0.575 ± 0.11 to 0.154 ± 0.081.

Going from MKMAVISEHLGLSWAELARELQFSVEDINRIRVENPNSLLEQSVALLWLWVIREGQNANMENLYTALQSIDRGEIVNMLE to MKMAVISEHLGLSWAELARELQFSVEDINRIRVENPNSLLEQSVALLKLWVIREGQNANMENLYTALQSIDRGEIVNMLE, the abundance fitness rises from -0.834 ± 0.2 to 0.098 ± 0.081.

MKMAVISEHLGLSWAELARELQFSVEDINRIRVENPNSLLEQSVSLLNLWVIREGQNANMENLYTALQSIDRGEIVNMLE and MKMAVISEHLGLSWAELARELQFSVEDINRIRVENPNSLLEQSVTLLNLWVIREGQNANMENLYTALQSIDRGEIVNMLE are within error of each other in abundance fitness: -0.03 ± 0.057 for the first, -0.085 ± 0.074 for the second.

MKMAVISEHLGLSWAELARELQFSVEDINRIRVENPNSLLEQSVVLLNLWVIREGQNANMENLYTALQSIDRGEIVNMLE and MKMAVISEHLGLSWAELARELQFSVEDINRIRVENPNSLLEQSVYLLNLWVIREGQNANMENLYTALQSIDRGEIVNMLE are within error of each other in abundance fitness: -0.513 ± 0.065 for the first, -0.565 ± 0.15 for the second.

Variant MKMAVISEHLGLSWAELARELQFSVEDINRIRVENPNSLLEQSVWLLNLWVIREGQNANMENLYTALQSIDRGEIVNMLE has an abundance fitness of -0.921 ± 0.17.

Reference: the Human Domainome abundance scans (Beltran et al. 2025)
